In PMC5832994 (ACS Central Science, 2018):
Where no end group is shown, it is not given here. Side-chain parts run from the residue outwards. The star is where a group is joined. PEG4 (disulfide) = PEG4 chain joined to the cysteine by a disulfide bond, carrying benzylguanine; benzylguanine = O6-benzylguanine; Octanoyl = CCCCCCCC(=O)*

Experiments:
[1] = system: MIN6 cells; test: Necrosis assay (propidium iodide/calcein); assay type: cell-based; conditions: 10 mM BME, 60 min incubation
Protocol: For quantification of necrosis, MIN6 cells were labeled with 5 μM calcein-AM and 5 μM propidium iodide for 30 min. Cells were imaged in HEPES-bicarbonate buffer using the Crest X-Light spinning disk system, and excitation was performed at λ = 458–482 nm and λ = 543–558 nm for calcein and propidium iodide, respectively. Emitted signals were detected at λ = 500–550 nm and λ = 602–662 nm for calcein and propidium iodide, respectively. Total area was quantified using the threshold plugin for Fiji and expressed as the ratio propidium iodide/calcein, as described.[70]

[2] = system: MIN6 cells; test: Apoptosis assay (cleaved caspase 3 immunostaining); assay type: cell-based; conditions: 10 mM BME, 60 min incubation, n = 3 experiments
Protocol: For quantification of apoptosis, MIN6 cells were incubated with 10 mM BME for the indicated times and fixed in 4% paraformaldehyde. Immunostaining was performed using an antibody against Cleaved Caspase 3 (CC3; 1:400; #9661, Cell Signaling Technology), before secondary goat antirabbit Alexa Fluor 633 (1:1000) and Hoechst 33342 staining. Cells were imaged using a Zeiss LSM 880 confocal microscope, with excitation delivered at λ = 405 nm and λ = 633 nm. Emitted signals were collected at λ = 410–550 nm and λ = 641–695 nm for Hoechst 33342 and Alexa Fluor 633, respectively. Total area was quantified using the threshold plugin for Fiji, and results were expressed as the ratio CC3/Hoechst, as described.[69]

[3] = target: SNAP_GLP-1R (UniProt P43220)
[4] = target: T1, human GHS-R1a (Homo sapiens, UniProt Q92847); test: Inositol phosphate (IP-1) accumulation assay, IP-One HTRF; assay type: cell-based; conditions: HEK293T-GHS-R1a cells; mean ± SEM, n = 2 assays in triplicate
T1 construct: expressed in transfected cells; host or cells: HEK293T cells

[5] = target: T2, human GHS-R1a (human, UniProt Q92847 1-366); test: cell-based or functional assay
[6] = target: T2, human GHS-R1a; test: AlphaScreen or HTRF; Tag-lite HTRF competition (Cisbio) on HEK293T-GHS-R1a cells; Ki calculated from binding curves; the labelled tracer is not named; as in ref. 72; n = 2 assays in triplicate; conditions: one partner purified

T2 sequence (Q92847 whole entry): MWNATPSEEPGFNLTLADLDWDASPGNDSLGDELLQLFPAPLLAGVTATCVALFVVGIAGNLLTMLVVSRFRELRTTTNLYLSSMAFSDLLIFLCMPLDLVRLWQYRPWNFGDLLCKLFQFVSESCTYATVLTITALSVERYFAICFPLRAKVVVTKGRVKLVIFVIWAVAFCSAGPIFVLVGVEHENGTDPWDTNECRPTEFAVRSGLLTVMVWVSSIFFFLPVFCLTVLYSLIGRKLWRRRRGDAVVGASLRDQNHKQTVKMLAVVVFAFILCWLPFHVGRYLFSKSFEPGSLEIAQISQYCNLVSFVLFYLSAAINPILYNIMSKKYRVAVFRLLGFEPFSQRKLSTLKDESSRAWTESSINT
Sequence of SNAP_GLP-1R (P43220 whole entry): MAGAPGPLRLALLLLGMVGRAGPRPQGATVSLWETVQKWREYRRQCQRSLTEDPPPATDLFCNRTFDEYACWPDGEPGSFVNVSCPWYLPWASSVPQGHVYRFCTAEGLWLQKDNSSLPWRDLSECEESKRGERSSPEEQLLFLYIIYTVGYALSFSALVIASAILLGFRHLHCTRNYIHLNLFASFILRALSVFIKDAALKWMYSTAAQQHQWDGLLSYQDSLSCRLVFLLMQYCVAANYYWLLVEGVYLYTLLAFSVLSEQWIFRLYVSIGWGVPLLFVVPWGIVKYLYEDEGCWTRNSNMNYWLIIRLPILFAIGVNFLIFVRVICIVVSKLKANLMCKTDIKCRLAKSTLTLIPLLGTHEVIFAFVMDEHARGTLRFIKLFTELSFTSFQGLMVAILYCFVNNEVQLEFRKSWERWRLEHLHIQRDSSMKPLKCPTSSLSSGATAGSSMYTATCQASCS
T1 sequence (Q92847 whole entry): as the sequence (Q92847 whole entry) above

Molecule: OCCS [BME, beta-mercaptoethanol]
- necrosis [1]: did not display significant signs of necrosis
- apoptosis (cleaved caspase 3) [2]: did not display significant signs of necrosis (Figure S4a) or apoptosis

Molecule: S39C-Ex4 (peptide)
- EC50 of cAMP accumulation (LANCE TR-FRET, 30 min) in YFP-AD293-SNAP GLP-1R cells [3]: 0.0988 nM

Molecule: CCCCCCCC(=O)OC[C@H](NC(=O)[C@H](CO)NC(=O)CN)C(=O)N[C@@H](Cc1ccccc1)C(=O)N[C@@H](CC(C)C)C(=O)N[C@@H](CO)C(=O)N1CCC[C@H]1C(=O)N[C@@H](CCC(=O)O)C(=O)N[C@@H](Cc1c[nH]cn1)C(=O)N[C@@H](CCC(N)=O)C(=O)N[C@@H](CCCNC(=N)N)C(=O)N[C@H](C(=O)N[C@@H](CCC(N)=O)C(=O)N[C@@H](CCC(N)=O)C(=O)N[C@@H](CCCNC(=N)N)C(=O)N[C@@H](CCCCN)C(=O)N[C@@H](CCC(=O)O)C(=O)N[C@@H](CO)C(=O)N[C@@H](CCCCN)C(=O)N[C@@H](CCCCN)C(=O)N1CCC[C@H]1C(=O)N1CCC[C@H]1C(=O)N[C@@H](C)C(=O)N[C@@H](CCCCN)C(=O)N[C@@H](CC(C)C)C(=O)N[C@@H](CCC(N)=O)C(=O)N1CCC[C@H]1C(=O)N[C@@H](CCCNC(=N)N)C(=O)NCC(=O)NCC(=O)N[C@@H](CS)C(=O)NCC(=O)O)C(C)C [ghrelinGGCG]
- EC50 [4]: 11.1 ± 0.4 nM

Molecule: GSS(Octanoyl)FLSPEHQRVQQRKESKKPPAKLQPRGGC([PEG4 (disulfide)-benzylguanine])G [GhrelON]
- EC50 of IP-1 accumulation (IP-One HTRF kit) in HEK293T-GHS-R1a cells [5]: 5.5 nM
- Ki [6]: 6.1 nM

Molecule: GSS(Octanoyl)FLSPEHQRVQQRKESKKPPAKLQPRGGCG [ghrelinGGCG]
- EC50 of IP-1 accumulation (IP-One HTRF kit) in HEK293T-GHS-R1a cells [5]: 11.2 nM
- Ki [6]: 19.6 nM
